In paper PMC5640846:
Values joined by “and” are separate entries in the source; they are usually repeats but may differ in a detail not shown here. Identical values can stand only once.

Legend:
[1] = biological target: HTNV Gn ectodomain (Hantaan virus glycoprotein Gn, residues 18 to 371) (Hantaan virus (HTNV)); test: AUC
[2] = biological target: HTNV Gn ectodomain (Hantaan virus glycoprotein Gn, residues 18 to 371) (Hantaan virus (HTNV)); test: crystal structure

HTNV Gn ectodomain (Hantaan virus glycoprotein Gn, residues 18 to 371) (domain or fragment)
stoichiometry N [1]: 2 and 3 and 4 | stoichiometry N [2]: 4
